Conditions: Escherichia coli (strain K12), Thermal, CD, NaCl 0.1 M, reversible: yes, whole UniProt chain shown

B1: Ribonuclease HI wild type, P0A7Y4 (protein)
chain: MLKQVEIFTDGSCLGNPGPGGYGAILRYRGREKTFSAGYTRTTNNRMELMAAIVALEALKEHCEVILSTDSQYVRQGITQWIHNWKKRGWKTADKKPVKNVDLWQRLDAALGQHQIKWEWVKGHAGHPENERCDELARAAAMNPTLEDTGYQVEV
Tm (pH 3, glycine-HCl 10 mM): 50.9 °C
unfolding enthalpy (van 't Hoff) (pH 3, glycine-HCl 10 mM): 443 kJ/mol
Tm (pH 5.5, Sodium acetate 10 mM): 52.5 °C
unfolding enthalpy (van 't Hoff) (pH 5.5, Sodium acetate 10 mM): 342 kJ/mol

From FireProtDB (doi:10.1021/bi00025a018)
